Test results: patent US20190060394A1 (HONG KONG BAPTIST UNIVERSITY, published 2019)
Where no end group is shown, it is not given here. [ ]: non-standard residue; d: D form. Ahx = NCCCCCC(=O)O

Experiments:
[1] = molecular target: bovine serum albumin (BSA) (bovine) (UniProt P02769); assay: luminescence titration, selectivity assay
[2] = molecular target: T1, Wild type EBNA1 protein (379-641 a.a.) fusing with glutathione S-transferase (Epstein-Barr virus, UniProt P03211 379-641); assay: luminescence titration in PBS, same conditions as L2P4
T1 construct: Expressed in E. coli (BL21), purified on glutathione sepharose; also called WT-EBNA1; WT EBNA1; not shown: glutathione S-transferase (GST) fusion partner
T1 sequence: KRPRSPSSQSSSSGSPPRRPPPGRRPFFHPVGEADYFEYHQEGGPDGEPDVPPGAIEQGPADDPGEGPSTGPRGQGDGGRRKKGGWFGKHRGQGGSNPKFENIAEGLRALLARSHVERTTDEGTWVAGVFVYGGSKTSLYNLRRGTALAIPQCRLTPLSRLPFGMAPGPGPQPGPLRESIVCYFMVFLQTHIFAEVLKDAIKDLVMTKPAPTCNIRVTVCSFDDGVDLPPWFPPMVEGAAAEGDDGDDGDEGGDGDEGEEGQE

[3] = molecular target: T1, Wild type EBNA1 protein (379-641 a.a.) …; assay: luminescence titration in PBS, double logarithm regression
[4] = molecular target: T1, Wild type EBNA1 protein (379-641 a.a.) …; assay: luminescence titration in PBS buffer
[5] = molecular target: T2, EBNA1 as present in the nucleus of EBV-positive cells (C666-1, NPC43, Raji) (Epstein-Barr virus, UniProt P03211 1-641); assay: cell-based or functional assay
T2 sequence: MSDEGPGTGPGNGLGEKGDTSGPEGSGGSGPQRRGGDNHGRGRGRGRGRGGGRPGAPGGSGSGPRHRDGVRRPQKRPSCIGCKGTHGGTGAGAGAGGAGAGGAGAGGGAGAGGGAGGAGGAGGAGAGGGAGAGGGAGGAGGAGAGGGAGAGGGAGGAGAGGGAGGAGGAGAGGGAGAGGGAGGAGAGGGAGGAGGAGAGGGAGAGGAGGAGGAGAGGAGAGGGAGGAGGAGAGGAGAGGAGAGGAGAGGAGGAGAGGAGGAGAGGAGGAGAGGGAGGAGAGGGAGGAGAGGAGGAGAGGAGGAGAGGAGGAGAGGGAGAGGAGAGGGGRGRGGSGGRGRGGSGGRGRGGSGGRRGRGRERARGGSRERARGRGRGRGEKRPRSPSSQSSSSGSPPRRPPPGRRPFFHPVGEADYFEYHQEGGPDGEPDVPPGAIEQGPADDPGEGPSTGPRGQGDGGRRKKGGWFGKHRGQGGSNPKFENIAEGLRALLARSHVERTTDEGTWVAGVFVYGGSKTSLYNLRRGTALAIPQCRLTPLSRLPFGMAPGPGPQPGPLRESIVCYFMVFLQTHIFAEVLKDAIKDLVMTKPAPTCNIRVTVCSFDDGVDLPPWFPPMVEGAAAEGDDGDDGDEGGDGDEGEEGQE

[6] = molecular target: T3, EBNA1-F565A (EBNA1 379-641 GST fusion with point mutation F565A) (Epstein-Barr virus, UniProt P03211 379-641); assay: luminescence titration, selectivity assay
T3 construct: Made by site-directed mutagenesis of the WT construct; not shown: glutathione S-transferase (GST) fusion partner
T3 sequence: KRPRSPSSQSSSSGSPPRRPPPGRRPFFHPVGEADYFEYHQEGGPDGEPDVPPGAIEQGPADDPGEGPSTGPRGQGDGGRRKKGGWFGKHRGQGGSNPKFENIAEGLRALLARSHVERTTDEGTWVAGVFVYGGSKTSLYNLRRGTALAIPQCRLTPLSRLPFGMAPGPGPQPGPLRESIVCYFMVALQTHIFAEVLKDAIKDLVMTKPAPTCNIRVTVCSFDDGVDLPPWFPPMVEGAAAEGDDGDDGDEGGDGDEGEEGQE

[7] = molecular target: T4, EBNA1-3A (EBNA1 379-641 GST fusion with YFMVF mutated to FFAVA) (Epstein-Barr virus, UniProt P03211 379-641); assay: luminescence titration, selectivity assay
T4 construct: also called EBNA1-3A mutant; mutant EBNA1; not shown: glutathione S-transferase (GST) fusion partner
T4 sequence: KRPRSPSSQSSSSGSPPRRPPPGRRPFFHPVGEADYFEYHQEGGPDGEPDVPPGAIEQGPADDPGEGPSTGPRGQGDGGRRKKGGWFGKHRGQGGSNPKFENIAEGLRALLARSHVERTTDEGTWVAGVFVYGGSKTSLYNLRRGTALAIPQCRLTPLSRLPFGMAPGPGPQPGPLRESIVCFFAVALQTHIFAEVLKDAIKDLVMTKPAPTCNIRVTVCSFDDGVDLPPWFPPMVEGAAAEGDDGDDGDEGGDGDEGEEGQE

[8] = molecular target: T5, EBNA1-Y561A (EBNA1 379-641 GST fusion with point mutation Y561A) (Epstein-Barr virus, UniProt P03211 379-641); assay: luminescence titration, selectivity assay
T5 construct: Made by site-directed mutagenesis of the WT construct; not shown: glutathione S-transferase (GST) fusion partner
T5 sequence: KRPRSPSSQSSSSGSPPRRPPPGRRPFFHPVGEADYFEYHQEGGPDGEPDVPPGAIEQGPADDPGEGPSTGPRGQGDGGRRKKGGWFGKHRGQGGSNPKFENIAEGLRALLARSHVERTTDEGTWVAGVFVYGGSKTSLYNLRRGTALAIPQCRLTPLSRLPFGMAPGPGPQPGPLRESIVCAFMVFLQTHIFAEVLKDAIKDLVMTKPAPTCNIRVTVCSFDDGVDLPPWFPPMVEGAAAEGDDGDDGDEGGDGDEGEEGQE

[9] = molecular target: T6, EBNA1-M563A (EBNA1 379-641 GST fusion with point mutation M563A) (Epstein-Barr virus, UniProt P03211 379-641); assay: luminescence titration, selectivity assay
T6 construct: Made by site-directed mutagenesis of the WT construct; not shown: glutathione S-transferase (GST) fusion partner
T6 sequence: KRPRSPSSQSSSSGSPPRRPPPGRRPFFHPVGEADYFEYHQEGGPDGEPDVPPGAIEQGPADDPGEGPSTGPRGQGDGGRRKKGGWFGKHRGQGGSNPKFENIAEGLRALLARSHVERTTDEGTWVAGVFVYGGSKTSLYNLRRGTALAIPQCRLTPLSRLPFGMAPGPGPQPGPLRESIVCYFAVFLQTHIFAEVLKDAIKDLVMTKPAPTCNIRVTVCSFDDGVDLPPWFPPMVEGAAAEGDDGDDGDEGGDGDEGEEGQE

Sequence of bovine serum albumin (BSA) (bovine) (P02769 25-607 limits assumed): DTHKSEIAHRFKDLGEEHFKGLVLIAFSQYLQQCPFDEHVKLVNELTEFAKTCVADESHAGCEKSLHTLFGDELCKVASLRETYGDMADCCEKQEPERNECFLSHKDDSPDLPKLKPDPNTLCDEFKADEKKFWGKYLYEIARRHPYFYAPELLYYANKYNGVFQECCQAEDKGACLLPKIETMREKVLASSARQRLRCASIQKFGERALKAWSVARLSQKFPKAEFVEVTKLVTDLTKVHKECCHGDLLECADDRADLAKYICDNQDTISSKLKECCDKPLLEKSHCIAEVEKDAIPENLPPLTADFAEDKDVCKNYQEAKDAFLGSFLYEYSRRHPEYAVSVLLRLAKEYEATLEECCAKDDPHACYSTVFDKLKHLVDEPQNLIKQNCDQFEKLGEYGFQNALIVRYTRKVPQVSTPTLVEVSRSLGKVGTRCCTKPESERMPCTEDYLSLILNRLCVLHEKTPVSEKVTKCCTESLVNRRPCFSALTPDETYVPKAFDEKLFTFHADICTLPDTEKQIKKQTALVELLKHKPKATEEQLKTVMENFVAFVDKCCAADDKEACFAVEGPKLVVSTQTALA

L2P4 (peptide conjugate: L2, 4-(4-(diethylamino)styryl)-N-carboxymethylpyridinium, coupled through an amide bond to peptide P4, CAhxYFMVFGGRrRK)
log Kassoc [1]: 4.7 log Kassoc

B1: L2P3 (peptide conjugate: L2 coupled to peptide P3, CAhxRrRKGGYFMVF) (peptide)
peptide: C[Ahx]R[dR]RKGGYFMVF-NH2
modifications: not fully specified (N-terminus); printed as CAhxRrRKGGYFMVF; also: L2 dye coupled to the peptide, site not given here
notes: Fluorescent dye-peptide conjugate
increase in emission intensity (fold) [2]: 4.7 fold
binding ratio [3]: 1 probe : WT-EBNA1

B2: L2P2 (peptide conjugate: L2 coupled to peptide P2, YFMVF) (peptide)
peptide: YFMVF-NH2
modifications: not fully specified (N-terminus); also: L2 dye coupled to the peptide, site not given here
notes: as for B1
binding result [4]: no binding

B3: L2P4 (peptide conjugate: L2, 4-(4-(diethylamino)styryl)-N-carboxymethylpyridinium, coupled through an amide bond to peptide P4, CAhxYFMVFGGRrRK) (peptide)
peptide: CXYFMVFGGRXRK
modifications: L2 (4-(4-(diethylamino)styryl)-N-carboxymethylpyridinium) coupled to the peptide through an amide bond; Ahx = 6-aminohexanoic acid (position 2); r = D-arginine (position 11); synthesised on Rink amide resin
notes: Fluorescent dye-peptide conjugate; also called formula (I)
in vitro emission intensity in the nucleus of EBV-positive C666-1 cells (confocal microscopy), L2P4 against L2P3 [5]: 3 fold over L2P3
log Kassoc [6]: 4.3 log Kassoc
log Kassoc [7]: 3.9 log Kassoc
log Kassoc [8]: 5.1 log Kassoc
log Kassoc [9]: 3.6 log Kassoc
